From article PMC11741350

Legend:
[1] = biological target: HA-RNF25 mutant lacking the Proline-Rich domain (human); experiment: co-IP
[2] = biological target: HA-RNF25 mutant lacking the RING+L+U5BR domains (human); experiment: co-IP

Sequence of REV7 (Q9UI95 whole entry): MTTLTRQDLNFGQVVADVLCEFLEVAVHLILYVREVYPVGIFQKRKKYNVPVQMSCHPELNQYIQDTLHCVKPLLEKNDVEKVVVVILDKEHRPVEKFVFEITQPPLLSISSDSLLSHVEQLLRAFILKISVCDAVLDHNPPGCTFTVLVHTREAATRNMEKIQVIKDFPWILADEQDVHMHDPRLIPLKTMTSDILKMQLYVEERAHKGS

REV7 (from UniProt Q9UI95 1-211) (natural protein)
fold reduction of co-precipitated REV7 against wild-type HA-RNF25 [1]: 3.13 fold | fold reduction of co-precipitated REV7 against wild-type HA-RNF25 [2]: 2.33 fold
